# Measured values from publication PMC2826804 (Journal of molecular biology, 2009).
# B1: GST-LARP6 fusion protein (La ribonucleoprotein domain family, member 6) (natural protein, human, UniProt Q9BRS8 1-491, looked up)
# chain: MAQSGGEARPGPKTAVQIRVAIQEAEDVDELEDEEEGAETRGAGDPARYLSPGWGSASEEEPSRGHSGTTASGGENEREDLEQEWKPPDEELIKKLVDQIEFYFSDENLEKDAFLLKHVRRNKLGYVSVKLLTSFKKVKHLTRDWRTTAHALKYSVVLELNEDHRKVRRTTPVPLFPNENLPSKMLLVYDLYLSPKLWALATPQKNGRVQEKVMEHLLKLFGTFGVISSVRILKPGRELPPDIRRISSRYSQVGTQECAIVEFEEVEAAIKAHEFMITESQGKENMKAVLIGMKPPKKKPAKDKNHDEEPTASIHLNKSLNKRVEELQYMGDESSANSSSDPESNPTSPMAGRRHAATNKLSPSGHQNLFLSPNASPCTSPWSSPLAQRKGVSRKSPLAEEGRLNCSTSPEIFRKCMDYSSDSSVTPSGSPWVRRRRQAEMGTQEKSPGTSPLLSRKMQTADGLPVGVLRLPRGPDNTRGFHGHERSRACV
# Target: the molecule itself
# Assay: native gel or EMSA
protein,measurement,value
B1,binding result,binds
